Laboratory results reported in patent US20240115497A1, “INHALABLE PHARMACEUTICAL POWDER FORMULATION AND PREPARATION METHOD THEREFOR” (ZHEJIANG CUIZE PHARMACEUTICAL TECHNOLOGY CO., LTD., priority 2021, published 2024).

Experiments:
[1] = Specific surface area by inverse gas chromatography-surface energy analyzer; type: physicochemical
Source text: The specific surface areas of the bulk drug semaglutide, excipient leucine and powder formulation were respectively detected by an inverse gas chromatography-surface energy analyzer.

[2] = injectable and oral formulations; cited from earlier work

| Molecule | Specific surface area [1] [m^2/g] | bioavailability [2] |
| --- | --- | --- |
| CC(C)C[C@H](N)C(=O)O [Excipient leucine, leucine] | 0.506 |  |
| Semaglutide [Bulk drug semaglutide] | 1.816 | about 1% |
